Data: US20240252732A1 (IMMUNICOM, published 2024)

Legend:
[1] = molecular target: T1, soluble TNF receptor 1 (sTNF-R1) (human, UniProt P19438 30-211); assay: equilibrium KD; method not stated
T1 construct: extracellular domain
T1 sequence (looked up): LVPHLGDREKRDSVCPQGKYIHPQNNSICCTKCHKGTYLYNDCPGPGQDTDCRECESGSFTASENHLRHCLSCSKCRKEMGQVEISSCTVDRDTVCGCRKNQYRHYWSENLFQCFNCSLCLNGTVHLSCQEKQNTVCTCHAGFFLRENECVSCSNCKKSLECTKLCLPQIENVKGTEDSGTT

[2] = molecular target: T2, soluble TNF receptor 2 (sTNF-R2) (human, UniProt P20333 23-257); assay: equilibrium KD; method not stated
T2 construct: extracellular domain
T2 sequence (looked up): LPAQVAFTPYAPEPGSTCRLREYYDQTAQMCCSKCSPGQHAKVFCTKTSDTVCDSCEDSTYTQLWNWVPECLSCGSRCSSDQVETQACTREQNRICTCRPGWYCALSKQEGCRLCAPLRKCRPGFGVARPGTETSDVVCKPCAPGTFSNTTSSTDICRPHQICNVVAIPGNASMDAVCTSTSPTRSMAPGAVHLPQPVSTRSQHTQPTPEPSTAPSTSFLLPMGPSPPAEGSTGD

B1: SEQ11 modified single chain TNF (scTNF) (ligand)
chain: THHHHHHHHHHAGGAENLYFQGSASSSSRTPSDKPVAHVVANPQAEGQLQWVNRRANALLANGVELRDNQLVVPSEGLYLIYSQVLFKGQGCPSTHVLLTHTISRIAVSYQTKVNLLSAIKSPCQRETPEGAEAKPWYEPIYLGGVFQLEKGDRLSAEINRPDYLDFDDDGQVYFGIIALGGGSGGGSGGGSGGGSSSRTPSDKPVAHVVANPQAEGQLQWVNRRANALLANGVELRDNQLVVPSEGLYLIYSQVLFKGQGCPSTHVLLTHTISRIAVSYQTKVNLLSAIKSPCQRETPEGAEAKPWYEPIYLGGVFQLEKGDRLSAEINRPDYLDFDDDGQVYFGIIALGGGSGGGSGGGSGGGSSSRTPSDKPVAHVVANPQAEGQLQWVNRRANALLANGVELRDNQLVVPSEGLYLIYSQVLFKGQGCPSTHVLLTHTISRIAVSYQTKVNLLSAIKSPCQRETPEGAEAKPWYEPIYLGGVFQLEKGDRLSAEINRPDYLDFDDDGQVYFGIIAL
notes: also called TNF variant trimer
- Kd [1]: 100 nM
- Kd [2]: 12 nM
